# T1: PUF4 RNA-binding domain (Saccharomyces cerevisiae, UniProt P25339 537-888)
# T1 sequence: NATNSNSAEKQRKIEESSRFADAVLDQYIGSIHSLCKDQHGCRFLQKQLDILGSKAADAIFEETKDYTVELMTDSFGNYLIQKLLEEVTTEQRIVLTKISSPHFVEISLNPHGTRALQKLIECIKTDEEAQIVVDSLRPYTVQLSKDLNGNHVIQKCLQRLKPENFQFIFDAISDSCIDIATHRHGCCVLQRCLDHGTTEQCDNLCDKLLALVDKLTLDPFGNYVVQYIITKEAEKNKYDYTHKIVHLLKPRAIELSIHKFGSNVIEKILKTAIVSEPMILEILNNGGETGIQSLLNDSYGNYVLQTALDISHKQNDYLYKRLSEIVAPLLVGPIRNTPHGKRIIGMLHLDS
# Target: T1, PUF4 RNA-binding domain
# Assay: Mg; RNA-MaP; 20 mM Na-HEPES pH 7.4, 30 mM KOAc, 0.75 mM MgCl2, 0.1% Tween-20, 5% glycerol, 0.1 mg/mL BSA, 2 mM DTT; 25 C; 0.0125-409.6 nM protein
# Settings: tags: N-His6-TEV cleaved; C-SNAP kept, Cy3B-labelled; label: tethered on chip by stalled RNA polymerase
row,Binder,Kd [nM]
1,ACAAACAUUAUAUAUAUAACAAAC (ssRNA) [Id_ii_S3_P3E.3_K3.2_C3.2_[C-2A]_H3.2_A3.1_F3.1_T3.2],462
2,ACAAACCUUAUAUAUAGCACAAAC (ssRNA) [Id_ii_S3_P3E.3_K3.2_C3.2_H3.2_A3.1_F3.1_T3.2_[T9G]_[A10C]],144
3,UCUCUUUGUACUAUUCUCUCUU (ssRNA) [Ib_S1_P5E.1_K5.1_C5.1_H5.1_A5.1_[T5C]_F5.1_[A10C]_T5.1],12.5
4,ACAAACCCUAUAUAUAUGACAAAC (ssRNA) [Id_ii_S3_P3E.3_K3.2_C3.2_[T-1C]_H3.2_A3.1_F3.1_T3.2_[A10G]],769
5,ACAAACGGACACUAUAUUACAAAC (ssRNA) [Id_ii_S3_P3E.4_K3.3_C3.2_[C-2G]_[T-1G]_H3.3_A3.1_F3.1_T3.2_[A10T]],1380
6,ACAAACCCUAUAUAUACUACAAAC (ssRNA) [Id_ii_S3_P3E.3_K3.2_C3.2_[T-1C]_H3.2_A3.1_F3.1_T3.2_[T9C]_[A10T]],45.5
7,ACAAACUGACACUAUAAGACAAAC (ssRNA) [Id_ii_S3_P3E.4_K3.3_C3.2_[C-2T]_[T-1G]_H3.3_A3.1_F3.1_T3.2_[T9A]_[A10G]],> 2300
8,ACAAACGUACACUAUACCACAAAC (ssRNA) [Id_ii_S3_P3E.4_K3.3_C3.2_[C-2G]_H3.3_A3.1_F3.1_T3.2_[T9C]_[A10C]],105
9,ACAAACCUUAUAUAUAUCACAAAC (ssRNA) [Id_ii_S3_P3E.3_K3.2_C3.2_H3.2_A3.1_F3.1_T3.2_[A10C]],396
10,ACAAACCUUAUAUAUAUGACAAAC (ssRNA) [Id_ii_S3_P3E.3_K3.2_C3.2_H3.2_A3.1_F3.1_T3.2_[A10G]],632
11,ACAAACUGACACUAUACCACAAAC (ssRNA) [Id_ii_S3_P3E.4_K3.3_C3.2_[C-2T]_[T-1G]_H3.3_A3.1_F3.1_T3.2_[T9C]_[A10C]],> 2300
12,ACAAACAAUAUAUAUAAGACAAAC (ssRNA) [Id_ii_S3_P3E.3_K3.2_C3.2_[C-2A]_[T-1A]_H3.2_A3.1_F3.1_T3.2_[T9A]_[A10G]],1090
13,ACAAACAAUAUAUAUAAUACAAAC (ssRNA) [Id_ii_S3_P3E.3_K3.2_C3.2_[C-2A]_[T-1A]_H3.2_A3.1_F3.1_T3.2_[T9A]_[A10T]],98.1
14,ACAAACAUUAUAUAUAUUACAAAC (ssRNA) [Id_ii_S3_P3E.3_K3.2_C3.2_[C-2A]_H3.2_A3.1_F3.1_T3.2_[A10T]],33.2
15,ACAAACCCUAUAUAUAUUACAAAC (ssRNA) [Id_ii_S3_P3E.3_K3.2_C3.2_[T-1C]_H3.2_A3.1_F3.1_T3.2_[A10T]],32.7
16,ACAAACGAACACUAUACAACAAAC (ssRNA) [Id_ii_S3_P3E.4_K3.3_C3.2_[C-2G]_[T-1A]_H3.3_A3.1_F3.1_T3.2_[T9C]],> 2300
17,UCUCUUUGUAAUAUUGUCUCUU (ssRNA) [Ic_S1_P5E.1_K5.1_C5.1_H5.1_A5.1_[T5A]_F5.1_[A10G]_T5.1],14.9
18,ACAAACCAUAUAUAUAAGACAAAC (ssRNA) [Id_ii_S3_P3E.3_K3.2_C3.2_[T-1A]_H3.2_A3.1_F3.1_T3.2_[T9A]_[A10G]],546
19,ACAAACGCACACUAUACAACAAAC (ssRNA) [Id_ii_S3_P3E.4_K3.3_C3.2_[C-2G]_[T-1C]_H3.3_A3.1_F3.1_T3.2_[T9C]],> 2300
20,ACAAACCAUAUAUAUAACACAAAC (ssRNA) [Id_ii_S3_P3E.3_K3.2_C3.2_[T-1A]_H3.2_A3.1_F3.1_T3.2_[T9A]_[A10C]],724

row,Binder,Kd [nM]
1,ACAAACGAACACUAUAUCACAAAC (ssRNA) [Id_ii_S3_P3E.4_K3.3_C3.2_[C-2G]_[T-1A]_H3.3_A3.1_F3.1_T3.2_[A10C]],> 2300
2,ACAAACGCACACUAUAAUACAAAC (ssRNA) [Id_ii_S3_P3E.4_K3.3_C3.2_[C-2G]_[T-1C]_H3.3_A3.1_F3.1_T3.2_[T9A]_[A10T]],> 2300
3,ACAAACCCUAUAUAUACCACAAAC (ssRNA) [Id_ii_S3_P3E.3_K3.2_C3.2_[T-1C]_H3.2_A3.1_F3.1_T3.2_[T9C]_[A10C]],614
4,ACAAACCCUAUAUAUAGUACAAAC (ssRNA) [Id_ii_S3_P3E.3_K3.2_C3.2_[T-1C]_H3.2_A3.1_F3.1_T3.2_[T9G]_[A10T]],392
5,ACAAACGAACACUAUACCACAAAC (ssRNA) [Id_ii_S3_P3E.4_K3.3_C3.2_[C-2G]_[T-1A]_H3.3_A3.1_F3.1_T3.2_[T9C]_[A10C]],> 2300
6,UCUCUUUGUAUUUUAAUCUCUU (ssRNA) [Ib_S1_P5E.1_K5.1_C5.1_H5.1_A5.1_[A7T]_F5.1_[T9A]_T5.1],3.42
7,ACAAACAAUAUAUAUACGACAAAC (ssRNA) [Id_ii_S3_P3E.3_K3.2_C3.2_[C-2A]_[T-1A]_H3.2_A3.1_F3.1_T3.2_[T9C]_[A10G]],1290
8,ACAAACGAACACUAUAACACAAAC (ssRNA) [Id_ii_S3_P3E.4_K3.3_C3.2_[C-2G]_[T-1A]_H3.3_A3.1_F3.1_T3.2_[T9A]_[A10C]],> 2300
9,ACAAACCGUAUAUAUAGAACAAAC (ssRNA) [Id_ii_S3_P3E.3_K3.2_C3.2_[T-1G]_H3.2_A3.1_F3.1_T3.2_[T9G]],366
10,ACAAACCGUAUAUAUAAAACAAAC (ssRNA) [Id_ii_S3_P3E.3_K3.2_C3.2_[T-1G]_H3.2_A3.1_F3.1_T3.2_[T9A]],697
11,ACAAACCUUAUAUAUAUUACAAAC (ssRNA) [Id_ii_S3_P3E.3_K3.2_C3.2_H3.2_A3.1_F3.1_T3.2_[A10T]],28.1
12,ACAAACAUUAUAUAUAAAACAAAC (ssRNA) [Id_ii_S3_P3E.3_K3.2_C3.2_[C-2A]_H3.2_A3.1_F3.1_T3.2_[T9A]],868
13,ACAAACGUACACUAUAUCACAAAC (ssRNA) [Id_ii_S3_P3E.4_K3.3_C3.2_[C-2G]_H3.3_A3.1_F3.1_T3.2_[A10C]],51
14,ACAAACCAUAUAUAUAGCACAAAC (ssRNA) [Id_ii_S3_P3E.3_K3.2_C3.2_[T-1A]_H3.2_A3.1_F3.1_T3.2_[T9G]_[A10C]],328
15,ACAAACAUUAUAUAUAACACAAAC (ssRNA) [Id_ii_S3_P3E.3_K3.2_C3.2_[C-2A]_H3.2_A3.1_F3.1_T3.2_[T9A]_[A10C]],708
16,ACAAACCUUAUAUAUAACACAAAC (ssRNA) [Id_ii_S3_P3E.3_K3.2_C3.2_H3.2_A3.1_F3.1_T3.2_[T9A]_[A10C]],513
17,ACAAACGGACACUAUACUACAAAC (ssRNA) [Id_ii_S3_P3E.4_K3.3_C3.2_[C-2G]_[T-1G]_H3.3_A3.1_F3.1_T3.2_[T9C]_[A10T]],2160
18,ACAAACGUACACUAUAACACAAAC (ssRNA) [Id_ii_S3_P3E.4_K3.3_C3.2_[C-2G]_H3.3_A3.1_F3.1_T3.2_[T9A]_[A10C]],100
19,ACAAACAAUAUAUAUAUUACAAAC (ssRNA) [Id_ii_S3_P3E.3_K3.2_C3.2_[C-2A]_[T-1A]_H3.2_A3.1_F3.1_T3.2_[A10T]],94
20,ACAAACCGUAUAUAUACCACAAAC (ssRNA) [Id_ii_S3_P3E.3_K3.2_C3.2_[T-1G]_H3.2_A3.1_F3.1_T3.2_[T9C]_[A10C]],1540

row,Binder,Kd [nM]
1,ACAAACUGACACUAUACUACAAAC (ssRNA) [Id_ii_S3_P3E.4_K3.3_C3.2_[C-2T]_[T-1G]_H3.3_A3.1_F3.1_T3.2_[T9C]_[A10T]],> 2300
2,UCUCUUUGUAUUGUAAUCUCUU (ssRNA) [Ib_S1_P5E.1_K5.1_C5.1_H5.1_A5.1_[A7G]_F5.1_[T9A]_T5.1],10.6
3,ACAAACGAACACUAUAAUACAAAC (ssRNA) [Id_ii_S3_P3E.4_K3.3_C3.2_[C-2G]_[T-1A]_H3.3_A3.1_F3.1_T3.2_[T9A]_[A10T]],> 2300
4,UCUCUUUGUAGUAUUAUCUCUU (ssRNA) [Ia_S1_P5E.1_K5.1_C5.1_H5.1_A5.1_[T5G]_F5.1_T5.1],30
5,ACAAACCUUAUAUAUACCACAAAC (ssRNA) [Id_ii_S3_P3E.3_K3.2_C3.2_H3.2_A3.1_F3.1_T3.2_[T9C]_[A10C]],845
6,ACAAACCAUAUAUAUAAAACAAAC (ssRNA) [Id_ii_S3_P3E.3_K3.2_C3.2_[T-1A]_H3.2_A3.1_F3.1_T3.2_[T9A]],1420
7,UCUCUUUGUAGUAUUGUCUCUU (ssRNA) [Ic_S1_P5E.1_K5.1_C5.1_H5.1_A5.1_[T5G]_F5.1_[A10G]_T5.1],81.1
8,ACAAACCGUAUAUAUAAGACAAAC (ssRNA) [Id_ii_S3_P3E.3_K3.2_C3.2_[T-1G]_H3.2_A3.1_F3.1_T3.2_[T9A]_[A10G]],796
9,ACAAACUGACACUAUAGAACAAAC (ssRNA) [Id_ii_S3_P3E.4_K3.3_C3.2_[C-2T]_[T-1G]_H3.3_A3.1_F3.1_T3.2_[T9G]],1880
10,ACAAACGAACACUAUAGCACAAAC (ssRNA) [Id_ii_S3_P3E.4_K3.3_C3.2_[C-2G]_[T-1A]_H3.3_A3.1_F3.1_T3.2_[T9G]_[A10C]],> 2300
11,ACAAACAUUAUAUAUAAUACAAAC (ssRNA) [Id_ii_S3_P3E.3_K3.2_C3.2_[C-2A]_H3.2_A3.1_F3.1_T3.2_[T9A]_[A10T]],381
12,ACAAACAUUAUAUAUAGUACAAAC (ssRNA) [Id_ii_S3_P3E.3_K3.2_C3.2_[C-2A]_H3.2_A3.1_F3.1_T3.2_[T9G]_[A10T]],67.5
13,ACAAACGCACACUAUAAGACAAAC (ssRNA) [Id_ii_S3_P3E.4_K3.3_C3.2_[C-2G]_[T-1C]_H3.3_A3.1_F3.1_T3.2_[T9A]_[A10G]],> 2300
14,ACAAACGCACACUAUAGGACAAAC (ssRNA) [Id_ii_S3_P3E.4_K3.3_C3.2_[C-2G]_[T-1C]_H3.3_A3.1_F3.1_T3.2_[T9G]_[A10G]],> 2300
15,ACAAACAUUAUAUAUAUCACAAAC (ssRNA) [Id_ii_S3_P3E.3_K3.2_C3.2_[C-2A]_H3.2_A3.1_F3.1_T3.2_[A10C]],450
16,ACAAACCUUAUAUAUAUAACAAAC (ssRNA) [Id_ii_S3_P3E.3_K3.2_C3.2_H3.2_A3.1_F3.1_T3.2],500
17,ACAAACGGACACUAUAAAACAAAC (ssRNA) [Id_ii_S3_P3E.4_K3.3_C3.2_[C-2G]_[T-1G]_H3.3_A3.1_F3.1_T3.2_[T9A]],> 2300
18,ACAAACACUAUAUAUAUAACAAAC (ssRNA) [Id_ii_S3_P3E.3_K3.2_C3.2_[C-2A]_[T-1C]_H3.2_A3.1_F3.1_T3.2],873

# Source: PMC9352680, “A comprehensive thermodynamic model for RNA binding by the Saccharomyces cerevisiae Pumilio protein PUF4”
